Consider 23 molecules from publication PMC5461112, “Structure analyses reveal a regulated oligomerization mechanism of the PlexinD1/GIPC/myosin VI complex” (eLife, 2017).

One may read the stoichiometry N as a count of units in the complex or per binding partner.

For data set [1], the target named is mouse GIPC1 GH1-PDZ-GH2 (version not told; pull-down and gel filtration) (mouse) (UniProt Q9Z0G0). Nature of the data set: SEC; gel filtration chromatography of the GH1-PDZ-GH2 proteins during purification. Background: SEC sorts molecules by how far they enter the pores of the column.
Data set [2] addresses mouse GIPC3 GH1-PDZ-GH2 (residues 20-307) (mouse). Described as above.
The target in data set [3] is T1, mouse PlexinD1 cytoplasmic region with the JM-segment (residues 1297-1925) (mouse, UniProt Q3UH93 1297-1925).
T1 construct: mouse PlexinD1, cytoplasmic region with the juxtamembrane segment, residues 1297-1925; also called PlexinD1_(cyto)(with JM); PlxD1; not shown: His6, N-terminal, cleaved
T1 sequence (looked up): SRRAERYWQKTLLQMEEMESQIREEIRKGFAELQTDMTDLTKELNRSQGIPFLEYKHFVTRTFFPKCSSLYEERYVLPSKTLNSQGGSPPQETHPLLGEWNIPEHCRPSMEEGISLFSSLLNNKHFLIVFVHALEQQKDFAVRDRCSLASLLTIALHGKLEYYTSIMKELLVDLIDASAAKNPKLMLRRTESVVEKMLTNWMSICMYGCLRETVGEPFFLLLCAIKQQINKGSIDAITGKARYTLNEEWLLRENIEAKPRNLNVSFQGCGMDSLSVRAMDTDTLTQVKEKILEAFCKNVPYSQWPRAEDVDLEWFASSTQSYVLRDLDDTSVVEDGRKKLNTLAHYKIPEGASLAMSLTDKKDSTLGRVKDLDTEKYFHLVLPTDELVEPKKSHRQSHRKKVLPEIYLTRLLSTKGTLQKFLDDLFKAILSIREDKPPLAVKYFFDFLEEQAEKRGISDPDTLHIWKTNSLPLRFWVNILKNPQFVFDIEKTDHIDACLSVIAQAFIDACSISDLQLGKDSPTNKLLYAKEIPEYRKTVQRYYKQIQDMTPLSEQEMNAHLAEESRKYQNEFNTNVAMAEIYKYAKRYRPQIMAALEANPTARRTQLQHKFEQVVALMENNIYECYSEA
Nature of the data set: pull-down; three proteins mixed: GST-HCBD, a GIPC and PlexinD1cyto (with JM), each 1 μM; glutathione beads; 10 mM Tris pH 8.0, 150 mM NaCl, 1 mM DTT; room temperature; Coomassie-stained SDS-PAGE. The settings on record: both partners purified.

Data set [4] deals with the molecule itself. Nature of the data set: SEC; gel filtration chromatography of the GH1-PDZ-GH2 proteins during purification.
Data set [5] deals with the molecule itself. As to the kind of experiment: crystal structure; apo-GIPC1 (residues 52-327), 5 mg/ml; 0.2 M Li2SO4, 0.1 M HEPES pH 7.5, 25% (w/v) PEG3350; 20°C.
Data set [6] concerns the molecule itself. Nature of the data set: crystal structure; PlexinD1cyto and GIPC1 (residues 52-333) mixed equimolar, 5 mg/ml; 0.1 M Bis-Tris pH 5.5, 2 M (NH4)2SO4; 20°C.
The target of data set [7] is T2, helical cargo-binding domain (HCBD) of mouse myosin VI (residues 1052-1096), GST removed.
T2 chain: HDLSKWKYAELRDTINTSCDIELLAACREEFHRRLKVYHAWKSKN
As to the kind of experiment: sedimentation velocity analytical ultracentrifugation (AUC). The settings on record: chain shown with the change, 150 μM, read off a plot.

Data set [8] concerns the target helical cargo-binding domain (HCBD) of mouse myosin VI (residues 1052-1096), GST removed (mouse). Nature of the data set: AUC; sedimentation velocity of GH2 and HCBD mixed 1:1 at various concentrations (mutants at 150 μM); multi-signal analysis; 10 mM Tris pH 8.0, 150 mM NaCl, 1 mM TCEP; 4°C, 50,000 rpm.
[9] abbreviates: 500 mM salt in the buffer, parent: est. 4.3.

Where “and” joins values, the source holds several entries; their conditions need not be identical. Equal entries are not always repeated.

The molecule “mouse GIPC1 GH1-PDZ-GH2 (version not told; pull-down and gel filtration) (from UniProt Q9Z0G0 52-333) (domain or fragment)” had a stoichiometry N in data set [1] of 2. With “mouse GIPC3 GH1-PDZ-GH2 (residues 20-307) (domain or fragment)”, the stoichiometry N in data set [2] is 2.

B1: mouse GIPC2 GH1-PDZ-GH2 (residues 40-314) (domain or fragment, UniProt Q9Z2H7 40-314, looked up)
chain: RKLVFHAQLAHGSATGRVEDFSSISELYAKIAGVFEIAPSEILFCTLNTPKIDMGKLLGGQLGLEDFIFAHVKGTKKEVNVYKSEDSLGLTITDNGVGYAFIKRIKDGSTIDSVKTICVGDHIECINGENIVGWRHFEVAKKLKELKKEELFTLQLIEPKKAFEIGPRSKAGKTSTEKIGTSRGTLRLRSKGPATVEELPSEAKAKAIGKVDDLLELYMGIRDIDLATTMFEAGKDKSNPDEFAVALDETLGDFAFPDEFLFDVWGAISDMKQGR
notes: mouse GIPC2, GH1-PDZ-GH2 domains, residues 40-314; not shown: His6, N-terminal, cleaved
B1: the binding result in data set [3] is “binds”. For the same molecule, in data set [4], the “stoichiometry N” value was 2.

B2: mouse GIPC1 GH1-PDZ-GH2 version 2 (residues 52-327) (domain or fragment, UniProt Q9Z0G0 52-327, looked up)
chain: AALRPRLVFHTQLAHGSPTGRIEGFTNVKELYGKIAEAFRLPAAEVMFCTLNTHKVDMDKLLGGQIGLEDFIFAHVKGQRKEVEVFKSEEALGLTITDNGAGYAFIKRIKEGSVIDHIQLISVGDMIEAINGQSLLGCRHYEVARLLKELPRGRTFTLKLTEPRKAFDMISQRSAGGHPGSGPQLGTGRGTLRLRSRGPATVEDLPSAFEEKAIEKVDDLLESYMGIRDTELAATMVELGKDKRNPDELAEALDERLGDFAFPDEFVFDVWGAIGD
notes: mouse GIPC1, GH1-PDZ-GH2 domains, version 2, residues 52-327; the dimer peak of gel filtration was collected; also called apo-GIPC1; not shown: His6, N-terminal, cleaved
With B2, the binding result in data set [5] was “binds”.

B3: mouse GIPC1 GH1-PDZ-GH2 version 1 (residues 52-333) (domain or fragment, UniProt Q9Z0G0 52-333, looked up)
chain: AALRPRLVFHTQLAHGSPTGRIEGFTNVKELYGKIAEAFRLPAAEVMFCTLNTHKVDMDKLLGGQIGLEDFIFAHVKGQRKEVEVFKSEEALGLTITDNGAGYAFIKRIKEGSVIDHIQLISVGDMIEAINGQSLLGCRHYEVARLLKELPRGRTFTLKLTEPRKAFDMISQRSAGGHPGSGPQLGTGRGTLRLRSRGPATVEDLPSAFEEKAIEKVDDLLESYMGIRDTELAATMVELGKDKRNPDELAEALDERLGDFAFPDEFVFDVWGAIGDAKVGRY
notes: mouse GIPC1, GH1-PDZ-GH2 domains, version 1, residues 52-333; the PDZ-GH2 linker and GH2 domain are invisible in the map; not shown: His6, N-terminal, cleaved
For the molecule B3, the binding result in data set [6] is “binds”.

B4: mouse GIPC1 GH2 domain (residues 258-333), Q9Z0G0 M276E (protein)
chain: SAFEEKAIEKVDDLLESYEGIRDTELAATMVELGKDKRNPDELAEALDERLGDFAFPDEFVFDVWGAIGDAKVGRY
As for B4, the other: s20,ww-value of the complex in data set [7] (parent: est. 3.8) worked out at 3.3 S.

B5: mouse GIPC1 GH2 domain (residues 258-333), Q9Z0G0 Y275A; M276E; I278Q; G323Q (protein)
chain: SAFEEKAIEKVDDLLESAEGQRDTELAATMVELGKDKRNPDELAEALDERLGDFAFPDEFVFDVWQAIGDAKVGRY
Take B5: the other: s20,ww-value of the complex in data set [7] (parent: est. 3.8) worked out at 1.3 S.

B6: mouse GIPC1 GH2 domain (residues 258-333) (domain or fragment)
chain: SAFEEKAIEKVDDLLESYMGIRDTELAATMVELGKDKRNPDELAEALDERLGDFAFPDEFVFDVWGAIGDAKVGRY
Take B6: in data set [8], the stoichiometry N was 1 and 1.1.

B7: mouse GIPC1 GH2 domain (residues 258-333), Q9Z0G0 F319S (protein)
chain: SAFEEKAIEKVDDLLESYMGIRDTELAATMVELGKDKRNPDELAEALDERLGDFAFPDEFVSDVWGAIGDAKVGRY
Turning to B7, in data set [7] (parent: est. 3.8), the other: s20,ww-value of the complex was 2.4 S.

B8: mouse GIPC1 GH2 domain (residues 258-333), Q9Z0G0 M276E; G323Q (protein)
chain: SAFEEKAIEKVDDLLESYEGIRDTELAATMVELGKDKRNPDELAEALDERLGDFAFPDEFVFDVWQAIGDAKVGRY
Turning to B8, the other: s20,ww-value of the complex in data set [7] (parent: est. 3.8) came to 1.5 S.

B9: mouse GIPC1 GH2 domain (residues 258-333), Q9Z0G0 G323Q (protein)
chain: SAFEEKAIEKVDDLLESYMGIRDTELAATMVELGKDKRNPDELAEALDERLGDFAFPDEFVFDVWQAIGDAKVGRY
For the molecule B9, the other: s20,ww-value of the complex in data set [7] (parent: est. 3.8) was determined as 1.8 S.

B10: mouse GIPC1 GH2 domain (residues 258-333), Q9Z0G0 Y275A; M276E (protein)
chain: SAFEEKAIEKVDDLLESAEGIRDTELAATMVELGKDKRNPDELAEALDERLGDFAFPDEFVFDVWGAIGDAKVGRY
Consider B10, for which the other: s20,ww-value of the complex in data set [7] (parent: est. 3.8) was determined as 1.3 S.

B11: mouse GIPC1 GH2 domain (residues 258-333), Q9Z0G0 I278Q; G323Q (protein)
chain: SAFEEKAIEKVDDLLESYMGQRDTELAATMVELGKDKRNPDELAEALDERLGDFAFPDEFVFDVWQAIGDAKVGRY
Consider B11, for which the other: s20,ww-value of the complex in data set [7] (parent: est. 3.8) came to 1.8 S.

B12: mouse GIPC1 GH2 domain (residues 258-333), Q9Z0G0 Y275A; M276E; I278Q (protein)
chain: SAFEEKAIEKVDDLLESAEGQRDTELAATMVELGKDKRNPDELAEALDERLGDFAFPDEFVFDVWGAIGDAKVGRY
On to B12, for which, in data set [7] (parent: est. 3.8), the other: s20,ww-value of the complex is 1.3 S.

B13: mouse GIPC1 GH2 domain (residues 258-333), Q9Z0G0 Y275A (protein)
chain: SAFEEKAIEKVDDLLESAMGIRDTELAATMVELGKDKRNPDELAEALDERLGDFAFPDEFVFDVWGAIGDAKVGRY
As to B13, in data set [7] (parent: est. 3.8), the other: s20,ww-value of the complex was determined as 3 S.

B14: mouse GIPC1 GH2 domain (residues 258-333), Q9Z0G0 M276E; F319S (protein)
chain: SAFEEKAIEKVDDLLESYEGIRDTELAATMVELGKDKRNPDELAEALDERLGDFAFPDEFVSDVWGAIGDAKVGRY
In the case of B14, the other: s20,ww-value of the complex in data set [7] (parent: est. 3.8) was 1.6 S.

B15: mouse GIPC1 GH2 domain (residues 258-333), Q9Z0G0 Y275A; G323Q (protein)
chain: SAFEEKAIEKVDDLLESAMGIRDTELAATMVELGKDKRNPDELAEALDERLGDFAFPDEFVFDVWQAIGDAKVGRY
As to B15, the other: s20,ww-value of the complex in data set [7] (parent: est. 3.8) is 1.6 S.

B16: mouse GIPC1 GH2 domain (residues 258-333), Q9Z0G0 Y275A; M276E; G323Q (protein)
chain: SAFEEKAIEKVDDLLESAEGIRDTELAATMVELGKDKRNPDELAEALDERLGDFAFPDEFVFDVWQAIGDAKVGRY
Take B16: in data set [7] (parent: est. 3.8), the other: s20,ww-value of the complex is 1.3 S.

B17: mouse GIPC1 GH2 domain (residues 258-333), Q9Z0G0 I278Q (protein)
chain: SAFEEKAIEKVDDLLESYMGQRDTELAATMVELGKDKRNPDELAEALDERLGDFAFPDEFVFDVWGAIGDAKVGRY
Take B17: the other: s20,ww-value of the complex in data set [7] (parent: est. 3.8) turned out to be 2.1 S.

B18: mouse GIPC1 linker-GH2 (residues 217-333), Q9Z0G0 Y275A; M276E; I278Q; G323Q (protein)
chain: AFDMISQRSAGGHPGSGPQLGTGRGTLRLRSRGPATVEDLPSAFEEKAIEKVDDLLESAEGQRDTELAATMVELGKDKRNPDELAEALDERLGDFAFPDEFVFDVWQAIGDAKVGRY
Turning to B18, in data set [7] (setting [9]), the other: s20,ww-value of the complex was determined as 1.4 S.

B19: mouse GIPC1 linker-GH2 (residues 217-333), Q9Z0G0 Y275A; M276E; I278Q (protein)
chain: AFDMISQRSAGGHPGSGPQLGTGRGTLRLRSRGPATVEDLPSAFEEKAIEKVDDLLESAEGQRDTELAATMVELGKDKRNPDELAEALDERLGDFAFPDEFVFDVWGAIGDAKVGRY
With B19, the other: s20,ww-value of the complex in data set [7] (setting [9]) turned out to be 1.4 S.

B20: mouse GIPC1 linker-GH2 (residues 217-333), Q9Z0G0 Y275A; M276E; G323Q (protein)
chain: AFDMISQRSAGGHPGSGPQLGTGRGTLRLRSRGPATVEDLPSAFEEKAIEKVDDLLESAEGIRDTELAATMVELGKDKRNPDELAEALDERLGDFAFPDEFVFDVWQAIGDAKVGRY
With B20, the other: s20,ww-value of the complex in data set [7] (setting [9]) was determined as 1.4 S.

B21: mouse GIPC1 linker-GH2 (residues 217-333), Q9Z0G0 Y275A; M276E (protein)
chain: AFDMISQRSAGGHPGSGPQLGTGRGTLRLRSRGPATVEDLPSAFEEKAIEKVDDLLESAEGIRDTELAATMVELGKDKRNPDELAEALDERLGDFAFPDEFVFDVWGAIGDAKVGRY
With B21, in data set [7] (setting [9]), the other: s20,ww-value of the complex is 1.4 S.
